# Experimental data taken from the DeepSol protein solubility set.
# Test: soluble on expression in E. coli; label from the status in PepcDB or PDB records
row,Sequence,soluble on expression in E. coli
1,MIVGSHQQYVVPSYSAAYVPSAYAYPSVYSPYVAAAAYPSVWAWGSNKNKDDAAPRAFARPSALLNNQKPTTA,not soluble
2,MSLLITRFIADHQGHREGPDGLRWGVESICTQLTELGVPIAPSTYYDHINREPSRRELRDGELKEHISRVHAANYGVYGARKVWLTLNREGIEVARCTVERLMTKLGLSGTTRGKARRTTIADPATARPADLVQRRFGPPAPNRLWVADLTYVSTWAGFAYVAFVTDAYARRILGWRVASTMATSMVLDAIEQAIWTRQQEGVLDLKDVIHHTDRGSQYTSIRFSERLAEAGIQPSVGAVGSSYDNALAETINGLYKTELIKPGKPWRSIEDVELATARWVDWFNHRRLYQYCGDVPPVELEAAYYAQRQRPAEGHHHHHH,not soluble
3,MKVGINGFGRIGRQVFRILHSRGVEVALINDLTDNKTLAHLLKYDSIYHRFPGEVAYDDQYLYVDGKAIRATAVKDPKEIPWAEAGVGVVIESTGVFTDADKAKAHLEGGAKKVIITAPAKGEDITIVMGVNHEAYDPSRHHIISNASCTTNSLAPVMKVLEEAFGVEKALMTTVHSYTNDQRLLDLPHKDLRRARAAAINIIPTTTGAAKATALVLPSLKGRFDGMALRVPTATGSISDITALLKREVTAEEVNAALKAAAEGPLKGILAYTEDEIVLQDIVMDPHSSIVDAKLTKALGNMVKVFAWYDNEWGYANRVADLVELVLRKGV,soluble
4,MIETTAALAEACTELAKSEFITIDTEFLRETTFWPELCLVQMASPTLEVLVDPLAKGIDLTPMFELMANPNVVKVFHAARQDIEIIYHLGGLIPHPIFDTQVAAMVCGFGDSISYDQLVQKIKNVQIDKSSRFTDWSRRPLTEKQLDYALADVTHLRDVYLSLKAQLEREGRSLWLTEEMNILESRDTYDMHPDDAWLRLKSRLRKPTELAILKFVAAWREREARSRNVPRSRVLKDDGIFEIAQQQPKDAEALSRLRTIPKGWERSASGTAIIETVNAALALPKEEMPKAPRHSHAPEGSGAAVELLKVLLKLTADKHGVAAKVIANSDDLDKIASEGENATVAALTGWRRELFGDVALKLINGEVALRFAGKKVEAVEVEAAASES,not soluble
5,MTKLQLKYRELKIISVIAASENISHAATVLGIAQANVSKYLADFESKVGLKVFDRTTRQLMLTPFGTALLPYINDMLDRNEQLNNFIADYKHEKRGRVTIYAPTGIITYLSKHVIDKIKDIGDITLSLKTCNLERNAFYEGVEFPDDCDVLISYAPPKDESLVASFITQYAVTAYASQRYLEKHPISRPDELEHHSCILIDSMMIDDANIWRFNVAGSKEVRDYRVKGNYVCDNTQSALELARNHLGIVFAPDKSVQSDLQDGTLVPCFQQPYEWWLDLVAIFRKREYQPWRVQYVLDEMLREIRHQLAQSQQLRPEQAAESED,soluble
6,KMPLTIYSADGEVIGMYGEQRREFTKIGDFPEVLRNAVIAAEDKRFYRHWGVDVWGVARAAVGNVVSGSVQSGASTITQQVAKNFYLSSEKTFTRKFNEVLLAYKIEQSLSKDKILELYFNQIYLGQRAYGFASAAQIYFNKNVRDLTLAEAAMLAGLPKAPSAY,not soluble
7,MKPVKSGLDSISKYLRTKKEVGRRKIGLLVDGPNILRKEFDVNLEEIRDVLKDYGNIKIGRVFLNQYASDKLVEAIENHGLEPIICSSDVDVRLAVEGMELVYNPNIDTLAIVTRDADFKPLLNKANEHGKETIIFGVEPGFSTALKNSADYVILMGKNHMSGYDDEDEEGKPDASERGEYHEEYPEDEYGESMEKT,not soluble
8,MGGTLLNISPTQHKILKLLIENEKISMREISEKLSVNMSTVSRNFRSLLESGFALKVEEASPGSSGGRKTALYTANPNKFFILGIGVEQNRLIGVVIDAKGNEVEKSEIHRSFRGDEIVNALVDCVEPFKEKYPNTVGISIGMPGIIKENKVIFSSALGIEDLDLGRILSKEFGTEIFVLNDANAAVVGYGFQKKNVVYFLISVPYYLNQPVGVGAGLWLEGSLYQGSNGAAGEFEIDILPSILSGPATLDEVDLKNLSSDSFLKLLSKLSEVASFVSYLLDPETVIFGGDITLFSPEFHSGLAKNVRDHLEKRHISDVEVLFDERGLWTVAFGAAKAFWKRILEDYEFAGKILK,not soluble
9,VGDLYYHVGVNATFIKNELTEVNGSRDEWQGFNPHAKGTITYAKTGHSIGYFNLIKTDGVFQSQQEIDAYVDKNGNKIQPNAQPGDLRFVDYNGDGKIDNNDRQDVGSAFPKVNLGVSLGAEWKGLDLNMFFDGNFGNKIYNAQYYSTVYNESTGNQYAERMNSWTENNHSDIPRCLFGTSDPNGTNWGYTDRWLENGSFLRLKTLELGYTLPKVWVSKAGLQNVRVYTAMENLFTITDYKGYTPDLGMVDADGAGTSGGSGVMTRGCDDGRYPMARTITFGLQVNF,not soluble
10,MAHHHHHHSLEYNLTTTEVAMENVSASWDEGIGEFFEKAKLEVNGGNISNEDPSAFFSNFSLHVAPVLRNINFKIEKGQLLAIAGSTGAGKTSLLMMIMGELEPSAGKIKHSGRISFSPQVSWIMPGTIKENIVFGVSYDQYRYLSVIKACQLEEDISKFPEKDNTVLGEGGITLSGGQRARISLARAVYKDADLYLLDSPFSYLDLFTEKEIFESCVCKLMANKTRILVTSKVEQLKKADKVLILHEGSCYFYGTFSELEDQRPEFSSHLIGFDHFNAERRNSIITETLRRCSEG,soluble
11,MVIMAGKAVRTEQVSATRQLILTTAERLFAEHGVYAVSNRQVSEAAGQGNNAAVGYHFGTKTDLVRAIAQRHSERVEELRARQLAALGDSPDLRDWVDCLVRPQFDHLAALGSPTWYARFCAQVMTDPALRQIMTEESRASVSLRAIIVGRNRCMPALPDEVRAERGDMARHLIVHTAEERERALAENRPTPRASWQDAADGLVDAIVGMWLAPVTPRGGG,not soluble
12,MIDENLIKINLICESQDEVFHYLATLVVDNGYANNTESVVQALKLRESEGTTGMMEGFAIPHAKDKSIVKPSIAILKLKTGVEWHSMDGQLINNVIALFIPEKEAGTTHLKVLSQIARLLVNKTFKEKIKEADTILELKELLTEKLDLTS,not soluble
13,MKKSLVVCALSAAVLLSGCETVNTTSGGVVGVDRKQSMFSMVSSAEVNQSYAQSYQQTLGEASSQGVLDKTSANAKRLQVIANRLIAQAPTFRPDCAQWKWEVNLIKSDELNANCGPGGKIIFYSGLIEKLKLTDDEIAAVMGHEIAHALREHGREAMSKQYAVGAGKQIATLFGVPQETVALGDNGVNLLMTLPNSRENENEADLIGLELAARAGYNPNAAISLWNKMGQAAGGSAPPEFMSTHPASTSRIASLQAAIPKVMPLYQAAKKSLEHHHHHH,not soluble
14,MGSDKIHHHHHHMSQKIAYQRLEDILKKGSRIALYARYSTGKQDENAQIHSVRNFLSDYGCELLDDNIYIDPKTSAVKVPMDQRKDLQRLIKDSKENKFDCIVSYKNDRIARNTQEHNELRTEMQRLGMPVVLSSTREIYTVGEIVPLTIKDALTQIEPLLIAERTRDTFSSKIENGEWTGGQAPYGYIYDKETELFEITDKKVEVVQEIFRLFKLGYGLQQIANKLIADRRDIGQKWYKDKIKYIITNPFYAGHMTMNRYVKGKLQLKMETWTWSKKQESIPAIMSRDEWEYCFYLYVERRKSQTVRKSSTPFWLRDILHCNECQLPFKTKNQKTKSKRKNGEKVEYGKILYECRNCGLKLETEKIHDKFKEDVGRVLKKLLEKHRENLIQQTQLQIEKEHEEITNVQKELANKRIKLIENIDVLDKKISQLYKDITTGKGLKANHTEDVLGKEDEQDDWNSKLVEILLTGRSQKHNDLEEIKQQQQLLEDKQESLNIVMNALKNQYQDELLNFSFDPENEKSMRNFLLQFVKAVYVSRDMRLDYKIYENLISE,not soluble
15,MAFLRSMWGVLSALGRSGAELCTGCGSRLRSPFSFVYLPRWFSSVLASCPKKPVSSYLRFSKEQLPIFKAQNPDAKTTELIRRIAQRWRELPDSKKKIYQDAYRAEWQVYKEEISRFKEQLTPSQIMSLEKEIMDKHLKRKAMTKKKELTLLGKPKRPRSAYNVYVAERFQEAKGDSPQEKLKTVKENWKNLSDSEKELYIQHAKEDETRYHNEMKSWEEQMIEVGRKDLLRRTIKKQRKYGAEEC,soluble
16,MGSDKIHHHHHHMQKLTLKEVQAKAVEILVYIDNICRSNNLHYTLFYGTLIGVERHKGFIPWDDDIDIVMPRPDYELLIKILKNDSNYQLLSFETRKHFRYPFAKLVDPNTVAHSKQYFGGEDKDLGVFVDIFPIDGIPDTQKERNELRKITEQYRLNLMDTLGLSYARSFHLSKALIKLITRYPNHFKVKKVGNNQYWRDLYQTEAKKTPFGATKHCGYLEWIHIDWGVFPNEWFLEYEDVEFEGHKFMAIKNRKQFLTLRYGDYMEMPPVEERITHHPYDFYQK,not soluble
17,GILRTQHTIRDSELNIKNSKMSDSVNARESNVYMAKLAEQAERYDEMAKYMKDVVEARQESEELTVEERNLLSVAYKNAVGSRRSSWRIISSVEQKEHSRNAEDASKMCGKYRSKVEAELTDICNDILTMLDKHLIPTATSPDSKVFYFKMKGDYHRYISEFSTGDSKQSSAEDALKAYKDATVVAKDLEPTHPIRLGLALNFSVFHYEILNEPRAAIDMAKEAFEMAIEQLDKLSEDCYKDSTLIMQLLRDNLTLWTAD,soluble
18,MGSDKIHHHHHHMALTQITQTVSPQPTPPELRKYDYDLVIVGGGIVGLTLASALKDSGLNILLIEAKVSSAAVAKGQAYAVHLLSALIYQGIGIWDKILPQIAKYRQVRLSDADYPGVVEFETTDLGTPELGYVAEHQALLEPLQEFVQNCPNVTYLCPAEVVSTNYQQNEVVIAVKIADQLNTIRSKLLVAADGSRSPIRQAAGIKTHGWKYWQSCIVAFVKPEKPHNDTAYERFWPSGPFAILPLPGNRCRIVWTAPHDEAKALCALNDEEFLQELSQRFGKQMGKLELLGDRFVFQVQLMQSDRYVLPRLALVGDAAHNCHPVGGQGLNLGIRDVAALAQVIQKAHQAGEDIGNIRVLKRYESWRQKENLAILGFTDMLDRMFSNQFPPLVFVRRLGLWFLQSVPALKTFMLKLMIGLKGKTPELAKR,not soluble
19,MASGKVRCTRKLRSWIVEQVESGHFPGVCWDDAAKTMFRIPWKHAGKQDFREDQDAAIFKAWALFKEKHKDGDIGHPAVWKTRLRCALNKSSEFEEVPERGRMDVAEPYKVYRILPAGTLPNQPRNQKSPCKRSISCVSPEREENMENGRTNGVVNHSDSGSNIGGGGNGSNRSDSNSNCNSELEEGAGTTEATIREDPVFLEHQLPLNSDYSLLLTFIYGGRVVGKTQVHSLDCRLVAERSDSESSMEQVEFPKPDPLEPTQHLLNQLDRGVLVASNSRGLFVQRLCPIPISWNAPEAPPGPGPHLLPSNKCVELFKTTYFCRDLAQYFQGQGPPPKFQATLHFWEESPGSSHSQENLITVQMEQAFARHLLEKIPEEEKAALFLLQHTEQSPSALGH,soluble
20,QAAVTDYYKTLHLFFISPEKGKEFERSTSIRRRVKAMPHGVNRLFSSLYYYYTLIQERATPRLQRLLDQLEADYPQNTIPETLRQHLRKDSRR,not soluble
21,SLQLESLISAAPALSQQAVDQEWSYMDFLEHLLHEEKLARHQRKQAMYTRMAAFPAVKTFEEYDFTFATGAPQKQLQSLRSLSFIERNENIVLLGPSGVGKTHLAIAMGYEAVRAGIKVRFTTAADLLLQLSTEQRQGRYKTTLQRGVMAPRLLIIDEIGYLPFSQEEAKLFFQVIAKRYEKSAMILTSNLPFGQWDQTFAGDAALTSAMLDRILHHSHVVQIKGESYRLRQKRKAGVIAEANP,not soluble
22,MTHSQQSMVDTFRASLFDNQDITVADQQIQALPYSTMYLRLNEGQRIFVVLGYIEQEQSKWLSQDNAMLVTHNGRLLKTVKLNNNLLEVTNSGQDPLRNALAIKDGSRWTRDILWSEDNHFRSATLSSTFSFAGLETLNIAGRNVLCNVWQEEVTSTRPEKQWQNTFWVDSATGQVRQSRQMLGAGVIPVEMTFLKPAPLEHHHHHH,soluble
